Results taken from patent US20190345227A1.

Target: SpyCatcher-elastin-CarHC-elastin-SpyCatcher
Test: cell-based or functional assay

free mCherry detected in the supernatant of the AAA+BCB hydrogel, under both dark and bright conditions: 50%
Substance: mCherry
